Test results reported in patent publication US10800813 (Bicycle, dated 2020).
Numbered stars: 1 amine (or outer) side, 2 acyl side, 3 side chain; on linkers, the order of the positions; unused ones are H or OH. Bridge positions count the residues as written; N and C are the ends. Square brackets hold non-standard residues; d marks the D form. Ends that are not written are not given here. NMeW = CN[C@@H](Cc1c[nH]c2ccccc12)C(=O)O; TBMB = c1c(C[*:1])cc(C[*:3])cc1C[*:2]; Agb = N=C(N)NCC[C@H](N)C(=O)O; Agp = N=C(N)NC[C@H](N)C(=O)O; NMeC = CN[C@@H](CS)C(=O)O; NMeS = CN[C@@H](CO)C(=O)O; NMeA = CN[C@@H](C)C(=O)O

B1: Ac-(06-34-18) NMeCys2 (peptide)
peptide: Ac-CSWPAR[NMeC]LHQDLC-NH2
modifications: linker 1-7-13 via TBMB
SMILES: CC(=O)N[C@H]1CSCc2cc3cc(c2)CSC[C@@H](C(=O)N[C@@H](CC(C)C)C(=O)N[C@@H](Cc2c[nH]cn2)C(=O)N[C@@H](CCC(N)=O)C(=O)N[C@@H](CC(=O)O)C(=O)N[C@@H](CC(C)C)C(=O)N[C@H](C(N)=O)CSC3)N(C)C(=O)[C@H](CCCNC(=N)N)NC(=O)[C@H](C)NC(=O)[C@@H]2CCCN2C(=O)[C@H](Cc2c[nH]c3ccccc23)NC(=O)[C@H](CO)NC1=O
B2: Ac-(06-34-18) NMeAla4 (peptide)
peptide: Ac-CSWP[NMeA]RCLHQDLC-NH2
modifications: linker 1-7-13 via TBMB
SMILES: CC(=O)N[C@H]1CSCc2cc3cc(c2)CSC[C@H](NC(=O)[C@H](CCCNC(=N)N)NC(=O)[C@H](C)N(C)C(=O)[C@@H]2CCCN2C(=O)[C@H](Cc2c[nH]c4ccccc24)NC(=O)[C@H](CO)NC1=O)C(=O)N[C@@H](CC(C)C)C(=O)N[C@@H](Cc1c[nH]cn1)C(=O)N[C@@H](CCC(N)=O)C(=O)N[C@@H](CC(=O)O)C(=O)N[C@@H](CC(C)C)C(=O)N[C@H](C(N)=O)CSC3
B3: Ac-(06-34-18) NMeTrp2 (peptide)
peptide: Ac-CS[NMeW]PARCLHQDLC-NH2
modifications: linker 1-7-13 via TBMB
SMILES: CC(=O)N[C@H]1CSCc2cc3cc(c2)CSC[C@H](NC(=O)[C@H](CCCNC(=N)N)NC(=O)[C@H](C)NC(=O)[C@@H]2CCCN2C(=O)[C@H](Cc2c[nH]c4ccccc24)N(C)C(=O)[C@H](CO)NC1=O)C(=O)N[C@@H](CC(C)C)C(=O)N[C@@H](Cc1c[nH]cn1)C(=O)N[C@@H](CCC(N)=O)C(=O)N[C@@H](CC(=O)O)C(=O)N[C@@H](CC(C)C)C(=O)N[C@H](C(N)=O)CSC3
B4: Ac-(06-34-18) NMeSer1, NMeAla4 (peptide)
peptide: Ac-C[NMeS]WP[NMeA]RCLHQDLC-NH2
modifications: linker 1-7-13 via TBMB
SMILES: CC(=O)N[C@H]1CSCc2cc3cc(c2)CSC[C@H](NC(=O)[C@H](CCCNC(=N)N)NC(=O)[C@H](C)N(C)C(=O)[C@@H]2CCCN2C(=O)[C@H](Cc2c[nH]c4ccccc24)NC(=O)[C@H](CO)N(C)C1=O)C(=O)N[C@@H](CC(C)C)C(=O)N[C@@H](Cc1c[nH]cn1)C(=O)N[C@@H](CCC(N)=O)C(=O)N[C@@H](CC(=O)O)C(=O)N[C@@H](CC(C)C)C(=O)N[C@H](C(N)=O)CSC3
B5: Ac-(06-34-18) NMeSer1 (peptide)
peptide: Ac-C[NMeS]WPARCLHQDLC-NH2
modifications: linker 1-7-13 via TBMB
SMILES: CC(=O)N[C@H]1CSCc2cc3cc(c2)CSC[C@H](NC(=O)[C@H](CCCNC(=N)N)NC(=O)[C@H](C)NC(=O)[C@@H]2CCCN2C(=O)[C@H](Cc2c[nH]c4ccccc24)NC(=O)[C@H](CO)N(C)C1=O)C(=O)N[C@@H](CC(C)C)C(=O)N[C@@H](Cc1c[nH]cn1)C(=O)N[C@@H](CCC(N)=O)C(=O)N[C@@H](CC(=O)O)C(=O)N[C@@H](CC(C)C)C(=O)N[C@H](C(N)=O)CSC3
B6: Ac-(06-34-18) A2A3 (peptide)
peptide: Ac-CSAAARCLHQDLC-NH2
modifications: linker 1-7-13 via TBMB
SMILES: CC(=O)N[C@H]1CSCc2cc3cc(c2)CSC[C@H](NC(=O)[C@H](CCCNC(=N)N)NC(=O)[C@H](C)NC(=O)[C@H](C)NC(=O)[C@H](C)NC(=O)[C@H](CO)NC1=O)C(=O)N[C@@H](CC(C)C)C(=O)N[C@@H](Cc1c[nH]cn1)C(=O)N[C@@H](CCC(N)=O)C(=O)N[C@@H](CC(=O)O)C(=O)N[C@@H](CC(C)C)C(=O)N[C@H](C(N)=O)CSC3
B7: Ac-(06-34-18) A2Q3 (peptide)
peptide: Ac-CSAQARCLHQDLC-NH2
modifications: linker 1-7-13 via TBMB
SMILES: CC(=O)N[C@H]1CSCc2cc3cc(c2)CSC[C@H](NC(=O)[C@H](CCCNC(=N)N)NC(=O)[C@H](C)NC(=O)[C@H](CCC(N)=O)NC(=O)[C@H](C)NC(=O)[C@H](CO)NC1=O)C(=O)N[C@@H](CC(C)C)C(=O)N[C@@H](Cc1c[nH]cn1)C(=O)N[C@@H](CCC(N)=O)C(=O)N[C@@H](CC(=O)O)C(=O)N[C@@H](CC(C)C)C(=O)N[C@H](C(N)=O)CSC3
B8: Ac-(06-34-18) Scram 1 (peptide)
peptide: Ac-CPSAWRCLHQDLC-NH2
modifications: linker 1-7-13 via TBMB
SMILES: CC(=O)N[C@H]1CSCc2cc3cc(c2)CSC[C@H](NC(=O)[C@H](CCCNC(=N)N)NC(=O)[C@H](Cc2c[nH]c4ccccc24)NC(=O)[C@H](C)NC(=O)[C@H](CO)NC(=O)[C@@H]2CCCN2C1=O)C(=O)N[C@@H](CC(C)C)C(=O)N[C@@H](Cc1c[nH]cn1)C(=O)N[C@@H](CCC(N)=O)C(=O)N[C@@H](CC(=O)O)C(=O)N[C@@H](CC(C)C)C(=O)N[C@H](C(N)=O)CSC3
B9: Ac-(06-34-18) Scram 4 (peptide)
peptide: Ac-CWARSPCLHQDLC-NH2
modifications: linker 1-7-13 via TBMB
SMILES: CC(=O)N[C@H]1CSCc2cc3cc(c2)CSC[C@H](NC(=O)[C@@H]2CCCN2C(=O)[C@H](CO)NC(=O)[C@H](CCCNC(=N)N)NC(=O)[C@H](C)NC(=O)[C@H](Cc2c[nH]c4ccccc24)NC1=O)C(=O)N[C@@H](CC(C)C)C(=O)N[C@@H](Cc1c[nH]cn1)C(=O)N[C@@H](CCC(N)=O)C(=O)N[C@@H](CC(=O)O)C(=O)N[C@@H](CC(C)C)C(=O)N[C@H](C(N)=O)CSC3
B10: Ac-(06-34-18) Scram 3 (peptide)
peptide: Ac-CAPWSRCLHQDLC-NH2
modifications: linker 1-7-13 via TBMB
SMILES: CC(=O)N[C@H]1CSCc2cc3cc(c2)CSC[C@H](NC(=O)[C@H](CCCNC(=N)N)NC(=O)[C@H](CO)NC(=O)[C@H](Cc2c[nH]c4ccccc24)NC(=O)[C@@H]2CCCN2C(=O)[C@H](C)NC1=O)C(=O)N[C@@H](CC(C)C)C(=O)N[C@@H](Cc1c[nH]cn1)C(=O)N[C@@H](CCC(N)=O)C(=O)N[C@@H](CC(=O)O)C(=O)N[C@@H](CC(C)C)C(=O)N[C@H](C(N)=O)CSC3
B11: Ac-(06-34-18) Scram 2 (peptide)
peptide: Ac-CWASPRCLHQDLC-NH2
modifications: linker 1-7-13 via TBMB
SMILES: CC(=O)N[C@H]1CSCc2cc3cc(c2)CSC[C@H](NC(=O)[C@H](CCCNC(=N)N)NC(=O)[C@@H]2CCCN2C(=O)[C@H](CO)NC(=O)[C@H](C)NC(=O)[C@H](Cc2c[nH]c4ccccc24)NC1=O)C(=O)N[C@@H](CC(C)C)C(=O)N[C@@H](Cc1c[nH]cn1)C(=O)N[C@@H](CCC(N)=O)C(=O)N[C@@H](CC(=O)O)C(=O)N[C@@H](CC(C)C)C(=O)N[C@H](C(N)=O)CSC3
B12: Ac-(06-34-18) Agp5 (peptide)
peptide: Ac-CSWPA[Agp]CLHQDLC-NH2
modifications: linker 1-7-13 via TBMB
SMILES: CC(=O)N[C@H]1CSCc2cc3cc(c2)CSC[C@H](NC(=O)[C@H](CNC(=N)N)NC(=O)[C@H](C)NC(=O)[C@@H]2CCCN2C(=O)[C@H](Cc2c[nH]c4ccccc24)NC(=O)[C@H](CO)NC1=O)C(=O)N[C@@H](CC(C)C)C(=O)N[C@@H](Cc1c[nH]cn1)C(=O)N[C@@H](CCC(N)=O)C(=O)N[C@@H](CC(=O)O)C(=O)N[C@@H](CC(C)C)C(=O)N[C@H](C(N)=O)CSC3
B13: Ac-(06-34-18) Agb5 (peptide)
peptide: Ac-CSWPA[Agb]CLHQDLC-NH2
modifications: linker 1-7-13 via TBMB
SMILES: CC(=O)N[C@H]1CSCc2cc3cc(c2)CSC[C@H](NC(=O)[C@H](CCNC(=N)N)NC(=O)[C@H](C)NC(=O)[C@@H]2CCCN2C(=O)[C@H](Cc2c[nH]c4ccccc24)NC(=O)[C@H](CO)NC1=O)C(=O)N[C@@H](CC(C)C)C(=O)N[C@@H](Cc1c[nH]cn1)C(=O)N[C@@H](CCC(N)=O)C(=O)N[C@@H](CC(=O)O)C(=O)N[C@@H](CC(C)C)C(=O)N[C@H](C(N)=O)CSC3

These binders were tested against T1, human plasma Kallikrein (human, UniProt P03952 20-638, limits assumed) (assay: enzyme inhibition assay).
T1 construct: also called hPK; human PK
T1 sequence (P03952 20-638 limits assumed): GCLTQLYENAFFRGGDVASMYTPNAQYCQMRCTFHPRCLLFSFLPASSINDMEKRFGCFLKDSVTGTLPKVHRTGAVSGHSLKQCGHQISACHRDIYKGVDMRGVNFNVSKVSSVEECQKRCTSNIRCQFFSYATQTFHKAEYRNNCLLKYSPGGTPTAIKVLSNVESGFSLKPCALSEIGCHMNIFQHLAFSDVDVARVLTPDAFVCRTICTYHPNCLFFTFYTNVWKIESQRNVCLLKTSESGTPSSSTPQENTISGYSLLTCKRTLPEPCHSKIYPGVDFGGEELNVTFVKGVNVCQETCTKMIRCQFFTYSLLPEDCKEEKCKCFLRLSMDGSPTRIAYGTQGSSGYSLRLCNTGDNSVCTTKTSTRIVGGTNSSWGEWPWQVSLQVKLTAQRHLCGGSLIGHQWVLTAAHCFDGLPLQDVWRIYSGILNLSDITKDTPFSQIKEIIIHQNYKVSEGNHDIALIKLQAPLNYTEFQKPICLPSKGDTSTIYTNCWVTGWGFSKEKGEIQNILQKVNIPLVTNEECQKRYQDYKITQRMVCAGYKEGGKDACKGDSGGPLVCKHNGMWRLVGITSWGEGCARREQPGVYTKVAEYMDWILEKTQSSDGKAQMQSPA

Row | Binder | Ki [nM]
1 | B1 | 418
2 | B2 | 343
3 | B3 | 228
4 | B4 | 444
5 | B5 | 0.5

Target: T1, human plasma Kallikrein
Assay: enzyme inhibition assay
Remark: another data set of the same source

Row | Binder | fold reduction of binding against Ac-06-34-18(TMB)-NH2 [fold]
6 | B6 | ~100000
7 | B7 | ~100000

Target: T1, human plasma Kallikrein
Assay: enzyme inhibition assay
Remark: another data set of the same source

Row | Binder | Ki [nM]
8 | B8 | 1090
9 | B9 | 67500
10 | B6 | 18500
11 | B7 | 15800
12 | B10 | 1890
13 | B11 | 11400

Target: T1, human plasma Kallikrein
Assay: enzyme inhibition assay
Remark: another data set of the same source

Row | Binder | Ki [nM]
14 | B12 | 1770
15 | B13 | 83

Target: T1, human plasma Kallikrein
Assay: enzyme inhibition assay
Remark: another data set of the same source

Row | Binder | IC50 [nM]
16 | ACSWPARCVHQDLCA (linker 2-8-14 via TBMB; not fully specified (N-terminus, C-terminus)) [06-34-01] | 0.15
17 | ACRWPARCTHQDLCA (linker 2-8-14 via TBMB; not fully specified (N-terminus, C-terminus)) [06-34-02] | 0.16
18 | ACRWPARCLHQDLCA (linker 2-8-14 via TBMB; not fully specified (N-terminus, C-terminus)) [06-34-05] | 0.076
19 | ACSWPARCTHQDLCA (linker 2-8-14 via TBMB; not fully specified (N-terminus, C-terminus)) [06-34-03 (01 + 02)] | 0.082
20 | ACRWPARCMHQDLCA (linker 2-8-14 via TBMB; not fully specified (N-terminus, C-terminus)) [06-34-04] | 0.075
21 | ACSWPARCMHQDLCA (linker 2-8-14 via TBMB; not fully specified (N-terminus, C-terminus)) [06-34-17 (01 + 04)] | 0.073

Each binder was assayed against T2, Rat plasma Kallikrein (rat, UniProt P14272 391-638, limits assumed) (assay: enzyme inhibition assay).
T2 construct: domain: catalytic domain; also called rPK; rat PK
T2 sequence (P14272 391-638 limits assumed): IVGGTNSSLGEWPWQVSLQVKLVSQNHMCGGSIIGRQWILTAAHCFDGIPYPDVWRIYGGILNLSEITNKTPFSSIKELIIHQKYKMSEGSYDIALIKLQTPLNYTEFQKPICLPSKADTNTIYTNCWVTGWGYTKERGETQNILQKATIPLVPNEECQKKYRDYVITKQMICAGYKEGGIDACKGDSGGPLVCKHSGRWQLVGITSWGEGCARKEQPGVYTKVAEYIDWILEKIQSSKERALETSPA

Row | Binder | IC50 [nM]
22 | ACSWPARCVHQDLCA (linker 2-8-14 via TBMB; not fully specified (N-terminus, C-terminus)) [06-34-01] | 6.12
23 | ACRWPARCTHQDLCA (linker 2-8-14 via TBMB; not fully specified (N-terminus, C-terminus)) [06-34-02] | 1.09
24 | ACRWPARCLHQDLCA (linker 2-8-14 via TBMB; not fully specified (N-terminus, C-terminus)) [06-34-05] | 0.62
25 | ACSWPARCTHQDLCA (linker 2-8-14 via TBMB; not fully specified (N-terminus, C-terminus)) [06-34-03 (01 + 02)] | 0.87
26 | ACRWPARCMHQDLCA (linker 2-8-14 via TBMB; not fully specified (N-terminus, C-terminus)) [06-34-04] | 0.56
27 | ACSWPARCMHQDLCA (linker 2-8-14 via TBMB; not fully specified (N-terminus, C-terminus)) [06-34-17 (01 + 04)] | 0.44
